Results taken from PMC12147029, “Rare SNP in the HELB gene interferes with RPA interaction and cellular function of HELB”.

How the values were obtained:
[1] = target: HELB WT (Homo sapiens, UniProt Q8NG08 1-1087); test: fluorescence anisotropy; 10 mM Mg(OAc)2, no nucleotide; 25 mM HEPES pH 7.5, 10 mM KOAc, 10 mM Mg(OAc)2, 0.1 mM EDTA, 2 mM beta-mercaptoethanol, 0.1 mg/ml BSA, 1 nM DNA, 30 min, room temperature; settings: protein: recombinant; tags: none (His-SUMO cleaved by Ulp1); label: 3'-6-carboxyfluorescein; single strand
Chain of HELB WT (Q8NG08 whole entry): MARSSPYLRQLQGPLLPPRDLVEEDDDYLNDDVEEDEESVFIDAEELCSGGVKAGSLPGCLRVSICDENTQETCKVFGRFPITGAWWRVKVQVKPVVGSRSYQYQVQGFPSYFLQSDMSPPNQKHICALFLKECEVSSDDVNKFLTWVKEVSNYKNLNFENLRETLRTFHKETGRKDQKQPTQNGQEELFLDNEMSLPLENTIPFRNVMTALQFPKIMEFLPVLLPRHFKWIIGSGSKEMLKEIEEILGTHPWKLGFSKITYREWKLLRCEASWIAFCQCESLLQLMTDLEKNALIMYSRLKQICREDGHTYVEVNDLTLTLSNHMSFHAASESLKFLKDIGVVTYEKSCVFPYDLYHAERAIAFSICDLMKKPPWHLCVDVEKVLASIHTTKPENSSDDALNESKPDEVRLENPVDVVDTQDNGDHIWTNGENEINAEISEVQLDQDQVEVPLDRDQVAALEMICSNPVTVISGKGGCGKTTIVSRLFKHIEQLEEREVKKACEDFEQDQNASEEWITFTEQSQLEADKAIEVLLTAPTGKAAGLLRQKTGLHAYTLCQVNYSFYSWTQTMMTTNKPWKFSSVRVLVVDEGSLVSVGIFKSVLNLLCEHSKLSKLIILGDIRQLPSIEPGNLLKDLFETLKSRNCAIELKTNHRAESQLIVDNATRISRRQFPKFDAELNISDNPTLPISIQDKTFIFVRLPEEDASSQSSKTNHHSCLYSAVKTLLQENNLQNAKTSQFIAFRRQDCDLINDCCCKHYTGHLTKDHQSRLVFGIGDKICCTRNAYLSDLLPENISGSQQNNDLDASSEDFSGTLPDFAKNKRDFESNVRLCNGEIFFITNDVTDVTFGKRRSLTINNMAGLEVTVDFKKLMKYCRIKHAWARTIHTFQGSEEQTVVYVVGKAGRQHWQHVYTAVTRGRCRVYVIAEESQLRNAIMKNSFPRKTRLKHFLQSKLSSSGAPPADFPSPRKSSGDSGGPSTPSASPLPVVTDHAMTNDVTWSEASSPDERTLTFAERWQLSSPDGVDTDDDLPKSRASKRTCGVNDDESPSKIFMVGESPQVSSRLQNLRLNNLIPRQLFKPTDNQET

[2] = target: HELB D506G (Homo sapiens, UniProt Q8NG08 1-1087, D506G); test: as above; settings: protein: recombinant; tags: none (His-SUMO cleaved by Ulp1); label: 3'-6-carboxyfluorescein; single strand
Chain of HELB D506G (Q8NG08 whole entry D506G): as the sequence (Q8NG08 whole entry) above, with D506G counted along it

TTTTTTTTTTTTTTTT (ssDNA) [3'-FAM-T16]
Kd [1]: 3.4 ± 0.2 nM
Kd [2]: 2.2 ± 0.4 nM
